According to a protein production outcome set (Wang et al. 2014):
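Further: failed if final PepcDB status was selected cloned or expressed and not failed if soluble or beyond.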

Experiment: label from the status in PepcDB records
In the case of “MKNNDLTTYGEYLEKLSPKHGREKVFNDFLQIVVCCLSMGRKEELYFKTIKPYDKTELDLFSQAFAALVMQMDRQPLVDPFGDYFQEFLSNAQNGQFFTPFGVCELMNQLITAPKVSDQPKQGDRRVLDPACGSGRLLLSAAQKDRALTFVGIDISYTCCLMTIINLCLNSLNGEVLHMNALTDQYWHRWLIIVDSVTKIPTVYEVEAGIINQPPACADDLKPLPVTGIIQPVKNMIPANFVRYTPKCLEHHHHHH”, the protein production was “failed”.
For “MKNNPLISIYMPTWNRQQLAIRAIKSVLRQDYSNWEMIIVDDCSTSWEQLQQYVTALNDPRITYIHNDINSGACAVRNQAIMLAQGEYITGIDDDDEWTPNRLSVFLAHKQQLVTHAFLYANDYVCQGEVYSQPASLPLYPKSPYSRRLFYKRNIIGNQVFTWAWRFKECLFDTELKAAQDYDIFLRMVVEYGEPWKVEEATQILHINHGEMQITSSPKKFSGYFHFYRKHKDKFDRASKKYQLFTLYQIRNKRMTWRTLLTLLSVRNGKRLADGIRGRLEHHHHHH”, the protein production was “not failed”.
With “MKNQLELIAESYDKGIDYGRRGISLYDDLPEYITNNPDYIIYKKTTESIEPSVYSGYKEIREYLSPTTNMKFIDLGCCLNLMFNGYDQWASTYHGVDISSKTIELLNEFSTNNKLHIGALICGSIHETPFDANYFDIGACIGVLEYYKKDFVEKALIEAHRIIKPGGKLVLDIPNIVSPACRGMILLEEHAGRTDQFDMLPLDFENMLCNYFEIEKVEKANAWAMFQYFLSCKK” the protein production was “failed”.
With “MKNQLIDRLTRYTTIDTQSDPKSTTTPSTEKQWDLLHLLEKELQQLGLPTDLDENGYLFATLESNIDVDVPTVGFLAHVDTSPDFNASNVKPQIIENYDGKPYKLGNTKRVLDPKVFPELNSLVGHTLMVTDGTSLLGADDKAGIVEIMEAICYLQEHPEIKHGTIRIGFTPDEEIGRGPHKFDVDRFNADFAYTMDGSQYGELQYESFNAAEAVITCHGVNVHPGSAKNAMVNAIRLGEQFDSLLPDSEVPERTEGYEGFYHLMNFEGTVEKATLQYIIRDHDKKQFELRKKRILEIRDDINAHFENYPVKVDISDQYFNMAEKILPLPHIIDIPKRVFAKLDIPANTEPIRGGTDGSQLSFMGLPTPNIFTGCGNFHGPYEYASIDVMEKAVQVIIGIVEDIAENH” the protein production was “failed”.
With “MKNRFAMMLMALLPVLVACQAKDGSADTVQSAVPAPSAPPSSSTATTTPTTPPPESARPVEASRVPSGPKPVAGTDYVVIQDGQQFQPVSGKVEVVEVFGYICPACFQFQPQIALWKAGLASDVNFVYVPAVFGGPWDDYARAFYAAETLNLQEKTHQQLYKAIHVDRTLKGERGRDTVQDIANFYAKFGVNPEQFVNTMSSFGISAKVNRAKQFAKHSQVTGTPSLIINGKYLVKGRTYDDMLRIADHLIEGERKVLGK” the protein production was “failed”.
In the case of “MKNRRTRWYRSLALRLLFIFWALLSVTAASGYLLAVWNKPKAELKPLEPEIYQTLQPLLSDALTFHSLQPGRLIAGDYRVAAQLSVQGSEKLLMDEMLRVSHGSTLLRMLGQESPQQIPLDERLLMGPFELDGNKILVTKPLGIEEQVDRERLEAESTRARILTLMVGSGLLAVLLGIWLIRPIRRMILAMREVADGSATPELKRLPKRGDEIGELARALSQGAVDLATSRDAQRRLLSDVSHELRSPMARMQVALDLADCNEDDPNWQQLRRDTERLSVIIERILSLSRLENGLVDLNHESLDSGELVQQLINDMCYQHPEVRERLLRHGSNWPVIDTDPELLRLVLENIVRNALHYTEDNVELSCDDYGKGCHIRIRDHGPGVDESTISKLFVPFYRGDPARHHKAGVGLGLALSHRAAAVLGGELKAHNHSEGGLEVVLDLPKSQPEQKE”, the protein production was “failed”.
In the case of “MKNRSLTLRLISVLCLTALFVWLGSTLVAWWQVRHDVNKVFDAQQVLFAERLANSDLSTILLESSTTLNKNSQSVLKKSYDDDALAFAIFSKTGKLLFSDGRNGKDFIFNYKTGFYNANIYDDDDKWRIFWRMAANGELVIAVGQELDYREDLIEEMILGQMWIWFASLPILIIVLGWLIHKELRPIKRLSQEVQTRKSGDVSLLNTEGLPVEILPLVKNLNQFFDRTSAMLQRERRFTSDAAHELRSPLAALRIQIEVAQLAGDDVALREQALLHLTQGIDRASQLIEQLLTLSRLDNLQALETLQLLDWEAIVQSLISERYFVAEKRKITLVFEKESEPKQKQGQSILVSLMLRNLLDNAIKYCPEDTIVSVKISSSQIIIEDNGGGVEPEDLKKLGQRFYRPAGQNEKGSGLGLSIVMRIAELHGFKVRLENVVKEGRRIGLKAIISL”, the protein production was “failed”.
In the case of “MKNRTKSRWKKIVLGIGLFLAVLVIGLTIFIKNSTYQATDSALKISQSATQEKNYDYYTNGQKNDTALIFYPGALVAPASYSEWAQEVATKGYDVYVVHFPLNLAVLAPNAAEQIIKDHPQQNFVLAGHSLGGVMASRFVAENEQRIKGMIYLASYPDEKGALNKKNLPVLSITATNDGVLNWTSYQKAKQFLPKDTQYVSIEGGNHAGFGNYGVQKGDSKATISNEQQQTEISQLIVAWLQSRPNK”, the protein production was “failed”.
In the case of “MKNSFLCVGSFLLAASFFTSCTEDKDWSGGLKNSDLVFQTYLPTEGAKGTELSIRGNNFGEDISQVQVWVNEKEAEVISVTSTRIMARVAEASGSGVVKVRVGEVVYSYPDLFSYGYIRNVYTVAGNGQGTTVDGAYLQASVQWPIVMVYDKWDDAILFLQDEGEHRIRRMKDGKIETLCSTKSLVNNARSICFSLDGDTLFIGNDNANNYVANPVAVGMVTRKGGFKDLKSYIPSEKLAQPHINGIAVNPVDGSLFTYHWGRHVFRYNKATETCEYVITRDQFNELVVGLFPDADGNMQNIGGDGGYGGLAFSPDGKTLYWNGRDPYQGILKADYDLVTKKCTNLTRFAGNGVWGIIDGQGVSSRMDQPNQIAVDAEGNLLVTTVYGRTVRKITPEGYVSTYAGIGYQTGYVDGLAAEAKFNKPYGIAIDAQGNVYVGDCENWRIRVIKEE”, the protein production was “failed”.
In the case of “MKNYMKLIFGLGLIALVGYWPAAKTPKRVNSLFLQNVEALAGSEHVTNLGCLGDGSVDCPINHIKVEYVVQGFSLGE”, the protein production was “failed”.
In the case of “MKPADLTNADRIALELGHAGRNAIPYLDDDRNADRPFTLNTYRPYGYTPDRPVVVVQHGVLRNGADYRDFWIPAADRHKLLIVAPTFSDEIWPGVESYNNGRAFTAAGNPRHVDGWTYALVARVLANIRAAEIADCEQVYLFGHSAGGQFVHRLMSSQPHAPFHAVTAANPGWYTLPTFEHRFPEGLDGVGLTEDHLARLLAYPMTILAGDQDIATDDPNLPSEPAALRQGPHRYARARHYYEAGQRAAAQRGLPFGWQLQVVPGIGHDGQAMSQVCASLWFDGRMPDAAELARLAGSQSA”, the protein production was “not failed”.
For “MKPAKVSLLHRLLQCLKQCVDCNTVNRFTAINIFVNILLISAVISFPYSAAAHGATQSGDQYSSFEELERNEDPASYRITEKNARVPMLIMAIHGGGIEPGTSEIANEVSKNYSLYLFEGLKSSGNTDLHITSTRFDEPAALAITASHQYVMSLHGYYSEDRDIKVGGTDRAKIRILVDELNRSGFAAEMLGTDDKYAGTHPNNIANKSLSGLSIQLEMSTGFRKSLFDRFTLKDRAATQNETFYRFTKLLTDFIHENYEEDGGDFPSAKIKHPLQV”, the protein production was “failed”.
With “MKPALHTVTSAPALPAYVATGNECALFEHAWRHQLPVLLKGPTGCGKTRFVAHMAARLGLPLHTVACHDDLTAADLTGRYLLKGGDTVWTDGPLTRAVREGGICYLDEVVEARKDVTVVLHPLTDDRRILPLERTGEELAAPKSFMLVVSYNPGYQTLLKALKPSTRQRFVAIEFGFLAPEQEIAVVSAESGLPPDRVRPLVALAGRLRALRGHDLEEGVSTRLVVYCATLIAAGTPIADAVLAGMIEPLTDDSDVKAALLDVARAVIG” the protein production was “failed”.
With “MKPARAQGSIMLLVDVYLDKSPIQGIGVFAKHHIPMGTLIWKLDPRFDRIIDVETYEGESGPVKNYLDRYSYPDRRDPAYIVFEADDARYMNHDDEPNCDVSSPEETYALRDIAPGEELTCNYNHFFEAGFDFLGDRHL” the protein production was “failed”.
In the case of “MKPENKIPVLTRLSDEMTAVVNFQQPGLPPWPADGDIETQRQYYLLERRFWNADAPSMTTRTCAVPTPYGDVTTRLYSPQPTSQATLYYLHGGGFILGNLDTHDRIMRLLARYTGCTVIGIDYSLSPQARYPQAIEETVAVCSYFSQHADEYSLNVEKIGFAGDSAGAMLALASALWLRDKHIRCGNVIAILLWYGLYGLQDSVSRRLFGGAWDGLTREDLDMYEKAYLRNDEDRESPWYCLFNNDLTRDVPPCFIASAEFDPLIDDSRLLHQTLQAHQQPCEYKMYPGTLHAFLHYSRMMTIADDALQDGARFFMARMKTPR”, the protein production was “not failed”.
For “MKPICIIPARSGSKGLPDKNMLFLSGKPMIFHTIDAAIESGMFDKKDIFVSTDSELYREICLERGISVVMRKPELSTDQATSYDMLKDFLSDYEDNQEFVLLQVTSPLRKSWHIKEAMEYYSSHDVDNVVSFSEVEKHPSLFTTLSDEGYAIDMVGADKGYRRQDLQPLYYPNGAIFISNKETYLREKSFFTSRTYAYQMAKEFSLDVDTRDDFIHVIGHLFFDYAIREKENKVFYKEGYSRLFNREASKIILGDSKTISTSLESYHNYSQGGVTLATMLENLPNFLTANVTEAFVSIGVNDLITGYSVEEIFSNFQKLYSLLAENKIKMRLTTIAYTLFRETVNNADIEKINQWLTEFCYQNQIPLLDINRFLSKDGNLNYHLTSDGLHFTQEANDLLQSQYQLFVDEVKTLLEHHHHHH”, the protein production was “not failed”.
For “MKPIVIKRDGSKAPFNRDRIQAAVESAAEHADQEIAIYALNVALAVELKLRDYDEVHITEIQTLVENELMQGPYKALARSYIEYRHDRDVAREKQSK”, the protein production was “failed”.
For “MKPKSMKEKLVKDMMSILNLRIKMIDVNGLLKELDDALDKVVAKKEPESFLKPIISPIEDYQKSVRQIQAQFTDAPKFNEEGAYPQFLSCGLLEIKGKNGASMEFCLPKVYPFPPKSLYIEHEKDGQFLREMLMRLLSSAPLVQLEVILVDALSLGGIFNLARRLLHKDNDFIYQQRILTESKEIEEALKHLYEYLKVNLQEKLAGYKDFAHYNEEKKDRLPLKALFLSGVDALSQNALYYLEKIMRFGSKNGVLSFVNLESEKNNKSTEDLKRYAECFKDRTSFERLKYLNIEVINDHGIQSKHMKDFADKIKAYYEKKKAVKRELKDLQKDEKFWTESSQFKVSVPVGWDINHKEVCFEIGNEQNHTLICGRSGSGKSNFLHVLIQNLAFYYAPNEVQLFLLDYKEGVEFNAYTDPNILEHARLVSVASSVGYGMSFLNWLCKEMQERANLFKQFNVKDLSDYRKHGEIPRLIVVIDEFQVLFSDNKSTKAVEGHLNTLLKKGRSYGVHLILATQTMRGTDINRSIMAQIANRIALSMDAEDSNSILGDDAACELVRPEGIFNNNGGHQKHHTKMSIPKAPDDFKPFIKKIHRDFNQRNLVPVEHKIYNGEKPLEMPNTLKANEMRLHLGKEADYEQKDLMVGFENSESHLLVVSQDLSARIALMKLFAQNFKTANKELLFYNAEKRLARELDELKKHHITPMQGPLGSVLDTAMNPNSVLVIDNLNEAKELHDKIGVEKLRSFLEKATDNEQYCIIFAHDLKQIQANYDLSKLKELLNNHFKQRLAFRCNGENLSAIKKDLPLLTNELNALFVELSKDSHTEFRPFSL”, the protein production was “failed”.
In the case of “MKPPADNNKEGAESHKLESESKPIWKSMSMFLVPLLLSNVLQSVGQLFGMVVVGRWLGVNDLAAISAFFPLFFLLVSFVIGIGSGSSILIGQAFGAKNEDRLKAIVGTTLTFTFIIGVLLAIIGSIFAMDIMRLMGTPENIIEISVHYARILFISMPVLFLYFAYTTFMRGTGDSKTPFYFLIVSTALNMILLPILIFGWLGAPKLDVYGAAYASVISTVITFIVMLVYLKKKNHPLQLDGTVRKYLRMDGELLKLLLRLGIPASINMILVSLSEIAVIAFVNRYGSDATAAYGVVNQVASYVQMPAVSLGITVSIFAAQSIGANQFDRLQKVVKAGIIMNYVIGGVLISLIYVFSRDILSLFLTSQTTIEIAHSLVMITLWSYLIFGHAQIISATMRASGTVLWPTVIGVVSIWLVEVPVAYYLSYHTSLGIEGIWIGYPAAFIVSLILQYAYYKLSWQKKRITRLVS”, the protein production was “not failed”.
In the case of “MKPRRKSALLWGAVAALSFLVLHQGYLLAGGAFLGVGPVAAVTVAVFVGGAAVSYYAEGRFGLFGWRR”, the protein production was “failed”.
